# Data published in PMC9755798, “Transcription factor CsESE3 positively modulates both jasmonic acid and wax biosynthesis in citrus”.
# What was measured:
# CsESE3 [1] = target: T1, CsESE3 (Citrus sinensis? ('Newhall' navel …, UniProt A0ACB8NL77 1-192)); test: EMSA; shift attenuated by excess (up to 28x) cold probe; EMSA as in Gong et al. 2021b; buffer, salt, pH and temperature not given; 5' FAM probes, 100 uM unlabeled competitor stocks, 7x/14x/28x excess; conditions: protein: recombinant; tags: N-terminal His (pETDuet); label: 5' FAM (top strand); blunt
# CsESE3 [2] = target: T1, CsESE3; test: EMSA; EMSA as in Gong et al. 2021b; buffer, salt, pH and temperature not given; 5' FAM probes, 100 uM unlabeled competitor stocks, 7x/14x/28x excess; conditions: protein: recombinant; tags: N-terminal His (pETDuet); label: 5' FAM (top strand); blunt
# T1 sequence (A0ACB8NL77 entry or part of it): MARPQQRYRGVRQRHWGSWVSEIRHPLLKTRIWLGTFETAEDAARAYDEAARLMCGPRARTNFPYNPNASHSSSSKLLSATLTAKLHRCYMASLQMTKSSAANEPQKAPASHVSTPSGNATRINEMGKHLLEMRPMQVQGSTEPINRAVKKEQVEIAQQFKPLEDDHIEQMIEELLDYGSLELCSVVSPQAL
Binder,binding result (CsESE3 [1]),binding result (CsESE3 [2])
Probe_PLIP (CsPLIP1 promoter GCC-box) (dsDNA) DNA 1: GAGCCTCACTAGCCGCCATTGTCCCCG DNA 2: CGGGGACAATGGCGGCTAGTGAGGCTC,binds,–
Probe_PLIP_Like (CsPLIP_Like promoter GCC-box) (dsDNA) DNA 1: AAATAAACTAAGCCGCCTTGTCATATT DNA 2: AATATGACAAGGCGGCTTAGTTTATTT,–,binds
